From patent publication US20160208233A1 (Harvard, published 2016)
“And” between values parts separate entries of the source, which are not always exact repeats. Identical values can stand only once.

Experiments:
[1] = target: T1, Abz-LPESGK(Dnp)-CONH2
T1 chain: LPESGK

[2] = target: T2, Abz-LPECGK(Dnp)-CONH2
T2 chain: LPECGK

[3] = target: T3, Abz-LPEAGK(Dnp)-CONH2
T3 chain: LPEAGK

[4] = target: T4, Abz-LAETGK(Dnp)-CONH2
T4 chain: LAETGK

[5] = target: T5, human fetuin A, endogenous in human plasma, P02765
T5 chain: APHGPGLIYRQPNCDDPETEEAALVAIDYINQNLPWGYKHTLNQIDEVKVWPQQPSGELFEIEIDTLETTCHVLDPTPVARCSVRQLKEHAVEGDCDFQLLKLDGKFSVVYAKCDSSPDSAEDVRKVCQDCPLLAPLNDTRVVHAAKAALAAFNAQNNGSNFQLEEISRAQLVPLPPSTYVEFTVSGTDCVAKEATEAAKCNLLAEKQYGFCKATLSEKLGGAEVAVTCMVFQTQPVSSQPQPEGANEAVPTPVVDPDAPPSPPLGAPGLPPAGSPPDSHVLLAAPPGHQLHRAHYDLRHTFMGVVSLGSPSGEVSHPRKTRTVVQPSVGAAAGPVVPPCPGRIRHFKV

[6] = target: T6, Alexa Fluor 647-LPESGG
T6 chain: KLPESGG

[7] = target: T7, Gly-Gly-Gly-COOH
T7 chain: GGG

[8] = target: T8, Abz-LPETGK(Dnp)-CONH2
T8 chain: LPETGK

[9] = target: T9, Alexa Fluor 488-LAETGG
T9 chain: KLAETGG

[10] = target: T10, Abz-LSETGK(Dnp)-CONH2
T10 chain: LSETGK

[11] = target: T11, Abz-LRETGK(Dnp)-CONH2
T11 chain: LRETGK

[12] = target: T12, eSrtA displayed on ICY200 yeast as a C-terminal Aga2p fusion (Staphylococcus aureus, UniProt Q2FV99 60-206); test: yeast-displayed eSrtA, 10 µM Btn-LAETGG against 100 nM to 1 mM LPETGG, cell biotinylation by flow cytometry
T12 construct: the whole entry is named here; also called Yeast displaying eSrtA; S. cerevisiae displaying eSrtA; not shown: Aga2p, yeast display anchor
T12 chain: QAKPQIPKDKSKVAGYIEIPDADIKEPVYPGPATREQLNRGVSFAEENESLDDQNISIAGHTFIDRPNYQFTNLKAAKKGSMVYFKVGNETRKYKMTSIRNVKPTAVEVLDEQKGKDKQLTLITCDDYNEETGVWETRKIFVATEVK

B1: eSrtA(4S-9) (protein)
chain: QAKPQIPKDKSKVAGYIEIPDADIKEPVYPGPATREQLDRGVCFVEENESLDDQNISITGHTAIDRPNYQFTNLRAAKKGSMVYLKVGNETRKYKMTSIRNVKPTAVEVLDEQKGKDKQLTLVTCDDYNFETGVWETRKIFVATEVK
- Avg KM [1]: 123 µM
- Avg kcat/KM [1]: 17600
- Km [1]: 113 µM
- Specificity, LPESG over LPETG [1]: 25 fold
- difference in transpeptidation of LPESG over LPETG [1]: an approximately 40-fold difference in transpeptidation of LPESG (SEQ ID NO: 3) over LPETG (SEQ ID NO: 4) by eSrtA(4S-9)
- kcat/Km [1]: 18200 M⁻¹ s⁻¹ and 18000 M⁻¹ s⁻¹
- Km [2]: 69 µM
- kcat/Km [2]: 74000 M⁻¹ s⁻¹
- Km [3]: 154 µM
- kcat/Km [3]: 12300 M⁻¹ s⁻¹
- Km [4]: 387 µM
- Rel. Activity (fold below the enzyme's best substrate, LPESG) [4]: 898 fold
- kcat/Km [4]: 20.2 M⁻¹ s⁻¹
- conjugation efficiency in human plasma, with supplemental calcium (densitometry) [5]: 1.8% or 57.6% by eSrtA(4S-9) in the absence or presence of supplemental calcium, respectively
- conjugation efficiency in human plasma, without supplemental calcium (densitometry) [5]: 1.8% or 57.6% by eSrtA(4S-9) in the absence or presence of supplemental calcium, respectively
- labeling of human plasma proteins with Gly-Gly-Gly-Lys(Biotin) [5]: identified a single transpeptidation product (FIG. 21C-D), identified by mass spectrometry and confirmed by Western blot as fetuin A
- conjugation of fluorophore-peptide to GGG-diblock (gel fluorescence), cognate pair [6]: Significant peptide-diblock conjugation was observed only for cognate pairs of enzyme and substrate, with no detectable off-target substrate conjugation
- modification of GGG-PEG-functionalized 96-well plates (fluorescence), cognate pair [6]: Each enzyme exhibited significant modification only on its cognate substrate
- Avg KM (uM) for GGG; with LPESG (4S) peptide [7]: 69500 µM
- Avg KM (uM) for GGG; with LPETG (wt) peptide [7]: 97600 µM
- Avg kcat/KM for GGG; with LPESG (4S) peptide [7]: 46.1
- Avg kcat/KM for GGG; with LPETG (wt) peptide [7]: 0.587
- Km,GGG (µM); listed substrate LPEAG [7]: 41000 µM
- Km,GGG (µM); listed substrate LPECG [7]: 55000 µM
- Km,GGG (µM); listed substrate LPESG [7]: 69000 µM
- Km,GGG (µM); listed substrate LPETG [7]: 98000 µM
- Avg KM [8]: 66.1 µM
- Avg kcat/KM [8]: 706
- Km [8]: 64.7 µM
- Rel. Activity (fold below the enzyme's best substrate, LPESG) [8]: 25 fold
- kcat/Km [8]: 720 M⁻¹ s⁻¹
- conjugation of fluorophore-peptide to GGG-diblock (gel fluorescence), non-cognate pair [9]: no detectable off-target substrate conjugation
- modification of GGG-PEG-functionalized 96-well plates (fluorescence), non-cognate pair: no significant modification [9]: Each enzyme exhibited significant modification only on its cognate substrate

B2: eSrtA(2A-9) (protein)
chain: QAKPQIPKDKSKVAGYIEIPDADIKEPVYPGPATREQLNRGVCFHDENESLDDQNISIAGHTFIDRPNYQFTNLKAAKPGSMVYFKVGNETRIYKMTSIRKVHPNAVEVLDEQEGKDKQLTLVTCDDYNEETGVWESRKIFVATEVK
- Km [1]: 4800 µM
- Rel. Activity (fold below the enzyme's best substrate, LAETG) [1]: 5940 fold
- kcat/Km [1]: 1.42 M⁻¹ s⁻¹
- Km [10]: 331 µM
- kcat/Km [10]: 355 M⁻¹ s⁻¹
- Km [11]: 1070 µM
- kcat/Km [11]: 233 M⁻¹ s⁻¹
- Avg KM [4]: 265 µM
- Avg kcat/KM [4]: 8420
- Km [4]: 265 µM
- Specificity (relative catalytic efficiency, fold), LAETG over LPETG [4]: 510 fold
- kcat/Km [4]: 8420 M⁻¹ s⁻¹
- conjugation of fluorophore-peptide to GGG-diblock (gel fluorescence), non-cognate pair [6]: no detectable off-target substrate conjugation
- modification of GGG-PEG-functionalized 96-well plates (fluorescence), non-cognate pair: no significant modification [6]: Each enzyme exhibited significant modification only on its cognate substrate
- Avg KM (uM) for GGG; with LAETG (2A) peptide [7]: 1480 µM
- Avg kcat/KM for GGG; with LAETG (2A) peptide [7]: 1070
- Km,GGG (µM); listed substrate LAETG [7]: 1480 µM
- Km,GGG (µM); listed substrate LPETG [7]: 585 µM
- Km,GGG (µM); listed substrate LRETG [7]: 628 µM
- Km,GGG (µM); listed substrate LSETG [7]: 1270 µM
- Avg KM [8]: 1270 µM
- Avg kcat/KM [8]: 16.5
- Km [8]: 1270 µM
- Rel. Activity (fold below the enzyme's best substrate, LAETG) [8]: 510 fold
- kcat/Km [8]: 16.5 M⁻¹ s⁻¹
- conjugation of fluorophore-peptide to GGG-diblock (gel fluorescence), cognate pair [9]: Significant peptide-diblock conjugation was observed only for cognate pairs of enzyme and substrate, with no detectable off-target substrate conjugation
- modification of GGG-PEG-functionalized 96-well plates (fluorescence), cognate pair [9]: Each enzyme exhibited significant modification only on its cognate substrate

Binder: LPETGG [non-biotinylated LPETGG peptide]
- Ki [12]: < 100 µM
